Data taken from patent publication EP1874358B1.

Columns and labels:
CEA = CEA (UniProt P06731); test: SE-HPLC of 125I-TF2 mixed with a 20-fold molar excess of CEA
[1] = biological target: fusion protein containing the A3B3 domain of CEA (UniProt P06731); test: competitive ELISA against HRP-conjugated hMN-14 IgG (1 nM) on A3B3 fusion protein

A percent shifted to a high molecular weight species (CEA) of 95% and a fold avidity relative to TF1 [1] of 2 fold were found for TF2 (bispecific antibody) in this work.
